Columns and labels:
[1] = target: HA-PKM2 (wild type), expressed in 293T cells (human) (UniProt P14618); assay: SEC; cell lysates (A549, H1299 or transfected 293T; with shCIP2A, pCDH-CIP2A or Flag-CIP2A) on Superdex 200 Increase 10/300 GL, 50 mM sodium phosphate, 0.15 M NaCl, pH 7.2; fractions analysed by western blot; both exogenous and endogenous PKM2 included
[2] = target: pyruvate kinase M2 (PKM2), endogenous (human (endogenous in A549 and H1299)) (UniProt P14618); assay: cross-linking; H1299 cell lysates (with Flag-CIP2A or siCIP2A) treated with 0.01% glutaraldehyde at 37 °C for 9 min, SDS-PAGE, western blot with anti-PKM2
[3] = target: purified recombinant WT PKM2 expressed in bacteria (human) (UniProt P14618); assay: SEC; purified recombinant WT, S287A and S287D PKM2 expressed in bacteria; size exclusion chromatography with molecular mass standards

pyruvate kinase M2 (PKM2), endogenous, P14618 1-531 (enzyme; other documents disagree on this pair), sequence (P14618 whole entry): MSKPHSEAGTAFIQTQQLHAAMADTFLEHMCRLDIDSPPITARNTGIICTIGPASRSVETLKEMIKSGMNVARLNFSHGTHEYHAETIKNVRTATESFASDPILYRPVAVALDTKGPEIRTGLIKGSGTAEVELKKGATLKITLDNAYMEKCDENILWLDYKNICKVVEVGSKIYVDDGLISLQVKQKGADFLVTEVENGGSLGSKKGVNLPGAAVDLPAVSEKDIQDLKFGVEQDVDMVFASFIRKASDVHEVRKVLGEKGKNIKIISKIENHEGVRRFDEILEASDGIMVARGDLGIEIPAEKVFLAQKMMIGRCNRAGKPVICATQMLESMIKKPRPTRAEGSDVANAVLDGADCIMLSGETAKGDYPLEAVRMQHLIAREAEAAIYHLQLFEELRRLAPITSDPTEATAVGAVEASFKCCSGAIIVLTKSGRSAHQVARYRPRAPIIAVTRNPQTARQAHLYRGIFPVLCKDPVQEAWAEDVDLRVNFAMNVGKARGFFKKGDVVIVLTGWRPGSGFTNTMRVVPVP
HA-PKM2 (wild type), expressed in 293T cells, P14618 1-531 (enzyme; other documents disagree on this pair), sequence (P14618 whole entry): as above
purified recombinant WT PKM2 expressed in bacteria, P14618 1-531 (enzyme; other documents disagree on this pair), sequence (P14618 whole entry): as above

Q: How did the stoichiometry N [1] turn out when “HA-PKM2 (wild type), expressed in 293T cells, P14618 1-531 (enzyme; other documents disagree on this pair)” was run?
A: The stoichiometry N was 2.

Q: With “pyruvate kinase M2 (PKM2), endogenous, P14618 1-531 (enzyme; other documents disagree on this pair)” as the substance, how does the stoichiometry N [2] read?
A: Its stoichiometry N is 2.

Q: “purified recombinant WT PKM2 expressed in bacteria, P14618 1-531 (enzyme; other documents disagree on this pair)” was tested. Which stoichiometry N [3] did it give?
A: Its stoichiometry N is 2.

Source: paper PMC10847417
